{
  "source": "paper PMC3942479",
  "target": "Full-length Human cytomegalovirus glycoprotein B (FL-gB), Strep-tagged (Human cytomegalovirus (FIX7 BAC))",
  "experiment": "negative-stain electron microscopy; purified FL-gB on a glow-discharged carbon grid, 2% uranyl formate, 2D class averages",
  "data": [
    {"substance": "Full-length Human cytomegalovirus glycoprotein B (FL-gB), Strep-tagged (natural protein)", "values": [
      {"measurement": "stoichiometry N", "result": 3}
    ]}
  ]
}
